Laboratory results taken from patent publication US20200385445A1 (COMPUGEN, published 2020).
Substitutions are numbered along the chain they refer to.

T1: human PVRIG (Poliovirus Receptor Related Immunoglobulin Domain Containing Protein), full length on cells (human, UniProt Q6DKI7 41-326)
T1 construct: whole, on cells; Over-expressed on HEK293 (some pools flag-tagged) or endogenous on Jurkat, CA46, T cells, NK cells, TILs; also called hPVRIG; HEK hPVRIG
T1 sequence (looked up): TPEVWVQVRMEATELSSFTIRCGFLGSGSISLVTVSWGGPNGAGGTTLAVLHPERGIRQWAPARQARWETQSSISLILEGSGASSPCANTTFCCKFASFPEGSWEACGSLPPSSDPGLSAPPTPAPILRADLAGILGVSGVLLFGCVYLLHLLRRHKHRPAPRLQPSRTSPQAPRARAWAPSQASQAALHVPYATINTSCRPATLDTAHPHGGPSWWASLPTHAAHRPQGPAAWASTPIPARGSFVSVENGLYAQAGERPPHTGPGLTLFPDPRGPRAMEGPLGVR

B1: CPA.7.016 human IgG1 (antibody, V domains shown)
VH: EVQLVQSGAEVKKPGSSVKVSCKTSGGTFSSSAISWVRQAPGQGFEWMGGIIPIYGITDYAQKFQGRVTITTDESTSTAYMELSSLTSEDTAVYYCARDDTARRVRGVPYYYYYAMDVWGQGTTVTVSS
VL: EIVLTQSPGTLSLSPGERATLSCRASQSVSSYLAWYQQKPGQAPRLLIYDASNRATGIPARFSGSGSGTDFTLTISSLQSEDFAVYYCQQYDDWPQTFGQGTRLEIKR
B2: CPA.7.004 human IgG1 (antibody, V domains shown)
VH: EVQLVQSGAEVKKPGASVKVSCKVSGYTLTELSMHWVRQAPGKGLEWMGGFDPEDGETIYAQKFQGRVTMTEDTSTDTAYMELSSLRSEDTAVYYCATVSRVRGVINYYYYMDVWGKGTTVTVSS
VL: DVVMTQSPLSLPVTPGEPASISCRSSQSLLYRNGNNYLDWYLQKPGQSPQLLIYLGSNRASGVPDRFSGSGSGTDFTLKISRVEAEDVGVYYCMQALQTPPTFGGGTKLEIKR
B3: CPA.7.011 human IgG1 (antibody, V domains shown)
VH: EVQLVQSGAEVKKPGASVKVSCKVSGYTLTELSMHWVRQAPGKGLEWMGGFDPEDGETIYAQKFQGRVTMTEDTSTDTAYMELSSLRSEDTAVYYCATGPAAAGVGYYYYMDVWGKGTTVTVSS
VL: B2 VL with N35Y, G105Q, L109V
B4: CPA.7.009 human IgG1 (antibody, V domains shown)
VH: EVQLVQSGAEVKKPGASVKVSCKVSGYTLTELSMHWVRQAPGKGLEWMGGFDPEDGETIYAQKFQGRVTMTEDTSTDTAYMELSSLRSEDTAVYYCATAKPGIAVAGQNYYYYYMDVWGKGTTVTVSS
VL: B2 VL
B5: CPA.7.014 human IgG1 (antibody, V domains shown)
VH: EVQLVQSGAEVKKPGASVKVSCKVSGYTLTELSMHWVRQAPGKGLEWMGGFDPEDGETIYAQKFQGRVTMTEDTSTDTAYMELSSLRSEDTAVYYCATGVTTYYYYGMDVWGQGTTVTVSS
VL: B2 VL with R32S, Y37F, Q50R, Y54S, V90I, G105Q, L109V
B6: CPA.7.047 human IgG1 (antibody, V domains shown)
VH: B3 VH with G99A, P100F, A101P, A102E, G104T, V105I, G106S
VL: B2 VL with N35Y, L55W, N58Y, L97V, T99N, G105Q, L109V
B7: CPA.7.012 human IgG1 (antibody, V domains shown)
VH: EVQLVETGGGLIQPGRSLRLSCAASGFTFSSYAMHWVRQAPGKGLEWVAVISYDGSNKYYADSVKGRFTISRDNSKNTLYLQMNSLRAEDTAVYYCARDVMVYCSSTSCYFYGMDVWGQGTTVTVSS
VL: DIQMTQSPSSLSASVGDRVTVTCQASQDIRDYLNWYQKKPGKAPKLLIYDASNLEAGVPSRFSGSGSGTDFTFTISGLQPEDVATYYCQQFENLPITFGQGTRLEIKR
B8: CPA.7.010 human IgG1 (antibody, V domains shown)
VH: EVQLVESGGGLVQPGRSLRLSCAASGFTFSSYAMHWVRQAPGKGLEWVAVISYDGSNKYYADSVKGRFTISRDNSKNTLYLQMNSLRAEDTAVYYCASSPIGYSYGYWGGMDVWGQGTTVTVSS
VL: QAVLTQPASLSASPGASASLTCTLRSGIDVRTNKIFWYQVKPGSPPQHLLTFQSDSDKQQGSGVPSRFSGSKDASANAGILIISGLQSEDEADYYCLIWHTSGWVFGGGTQLTVLG
B9: CPA.7.015 human IgG1 (antibody, V domains shown)
VH: QITLKESGGGVVQPGGSLRLSCAASGFTFSSYGMHWVRQAPGKGLEWVAFIRYDGSNKYYADSVKGRFTISRDNSKNTLYLQMNSLRAEDTAVYYCARDLFDFWWDGMDVWGQGTTVTVSS
VL: EIVLTQSPGTLSLSPGEKATLSCRVSQSVSSMYLAWYQQKPGQAPRLLIYGASYRATGIPDRFSGSGSGTDFNLTISRLEPEDFAVYYCQQYVSSPMYTFGLGTKLEIKR

Biological target: T1, human PVRIG (Poliovirus Receptor …)
Assay: FACS dose titration on PVRIG over-expressing HEK293 cells
Procedure: FACS screening of the reformatted antibodies was done similarly to the PPE based screen described herein, except that a dose-dependent titration of the purified antibodies was performed. The human PVRIG over-expressing HEK293 cells, or the un-transfected HEK293 cells, were incubated with varying concentrations (0-10 μg/ml) of the anti PVRIG antibodies or isotype controls in FACS buffer at 4° C. for 60 mins. […] Cells were washed twice and re-suspended in a final volume of 80 μl of FACS buffer and Propidium Iodide (Biolegend cat #421301) diluted 1:1000. Samples were analyzed using an Intellicyt HTFC screening system (Intellicyt). Data was analyzed using FlowJo (DeNovo), exported to Excel (Microsoft) and plotted in GraphPad Prism (GraphPad Software, Inc.).
All unique ELISA and FACS binders were reformatted for expression as human IgG1 molecules in Expi293 cells. […] These reformatted antibodies were tested for retained binding to PVRIG over-expressing HEK293 cells alongside an irrelevant human IgG1 isotype control. All antibodies were also tested against un-transfected HEK293 cells.

**Q.** Which Kd does the source give for B1 here?
**A.** The Kd was 22 nM.

**Q.** B2 was tested. Which Kd did it give?
**A.** Its Kd is 21.7 nM.

**Q.** With B3 as the binder, how does the Kd read?
**A.** Its Kd is 66 nM.

**Q.** Which Kd does the source give for B4 here?
**A.** The Kd was 33 nM.

**Q.** B5 was tested. Which Kd did it give?
**A.** Its Kd is 2.04 nM.

**Q.** How did the Kd turn out when B6 was run?
**A.** Its Kd is 5.36 nM.

**Q.** For B7, which Kd is on record?
**A.** The Kd was 0.3 nM.

**Q.** Which Kd does the source give for B8 here?
**A.** Its Kd is 21.9 nM.

**Q.** With B9 as the binder, how does the Kd read?
**A.** The Kd was 1.34 nM.
